Measurements: the supplement of paper PMC9112550, “Optimization of the antimicrobial peptide Bac7 by deep mutational scanning” (BMC Biology, 2022)

Tested on: Escherichia coli TOP10
Experiment: shrunken log2 fold change of peptide-encoding DNA abundance (4.5 h post-induction vs induction); higher = less antimicrobial activity (less host growth inhibition)
Settings: time post-induction: 4.5 h; library: site-saturation at positions 5, 18, 19, 20
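Note: peptides expressed intracellularly from a pBAD plasmid library in pooled LB shake-flask culture, induced with 0.3% L-arabinose, DNA abundance read by NGS, three biological replicates, DESeq2 with apeglm shrinkage.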

| Sequence | shrunken log2 fold change |
| --- | --- |
| RRIRLRPPRLPRPRPRPNWKPRP | -0.225 |
| RRIRCRPPRLPRPRPRPEHLPRP | -0.0545 |
| RRIRDRPPRLPRPRPRPDVKPRP | -0.00748 |
| RRIRMRPPRLPRPRPRPAVKPRP | 0.0878 |
| RRIRCRPPRLPRPRPRPWQMPRP | -0.0748 |
| RRIRSRPPRLPRPRPRPRKKPRP | 0.362 |
| RRIRRRPPRLPRPRPRPQYWPRP | -0.147 |
| RRIRVRPPRLPRPRPRPYSRPRP | -0.0134 |
| RRIRIRPPRLPRPRPRPHCKPRP | -0.147 |
| RRIRSRPPRLPRPRPRPFYAPRP | -0.236 |
| RRIRTRPPRLPRPRPRPCCQPRP | 0.0313 |
| RRIRERPPRLPRPRPRPTSGPRP | 0.0416 |
| RRIRRRPPRLPRPRPRPTQHPRP | 0.691 |
| RRIRMRPPRLPRPRPRPVQIPRP | 0.378 |
| RRIRLRPPRLPRPRPRPRVRPRP | 0.325 |
| RRIRTRPPRLPRPRPRPNRAPRP | -0.244 |
| RRIRGRPPRLPRPRPRPWKEPRP | 0.275 |
| RRIRIRPPRLPRPRPRPKAYPRP | -0.124 |
| RRIRNRPPRLPRPRPRPEVWPRP | 0.815 |
| RRIRQRPPRLPRPRPRPCRTPRP | 0.0557 |
| RRIRPRPPRLPRPRPRPAYCPRP | -0.215 |
| RRIRIRPPRLPRPRPRPDKIPRP | -0.0602 |
| RRIRMRPPRLPRPRPRPPPCPRP | 1.73 |
| RRIRCRPPRLPRPRPRPITPPRP | -0.219 |
| RRIRCRPPRLPRPRPRPNFMPRP | -0.448 |

| Sequence | shrunken log2 fold change |
| --- | --- |
| RRIRFRPPRLPRPRPRPSMNPRP | 0.274 |
| RRIRQRPPRLPRPRPRPYHAPRP | -0.052 |
| RRIRIRPPRLPRPRPRPWDAPRP | -0.00869 |
| RRIRMRPPRLPRPRPRPGEVPRP | 0.884 |
| RRIRVRPPRLPRPRPRPLMPPRP | 0.0146 |
| RRIRSRPPRLPRPRPRPGEFPRP | -0.181 |
| RRIRNRPPRLPRPRPRPAWQPRP | -0.0152 |
| RRIRHRPPRLPRPRPRPFIQPRP | -0.577 |
| RRIRPRPPRLPRPRPRPPRFPRP | 0.557 |
| RRIRDRPPRLPRPRPRPGGPPRP | 0.247 |
| RRIRVRPPRLPRPRPRPATEPRP | -0.0882 |
| RRIRYRPPRLPRPRPRPEMTPRP | -0.0508 |
| RRIRQRPPRLPRPRPRPESWPRP | 0.461 |
| RRIRFRPPRLPRPRPRPWMKPRP | -0.0336 |
| RRIRHRPPRLPRPRPRPVMLPRP | -0.196 |
| RRIRKRPPRLPRPRPRPHEFPRP | -0.0156 |
| RRIRRRPPRLPRPRPRPYGEPRP | -0.0212 |
| RRIRRRPPRLPRPRPRPQTGPRP | 0.0354 |
| RRIRSRPPRLPRPRPRPYYIPRP | -0.461 |
| RRIRGRPPRLPRPRPRPTGKPRP | 0.899 |
| RRIRCRPPRLPRPRPRPILKPRP | -0.263 |
| RRIRARPPRLPRPRPRPSCQPRP | 0.133 |
| RRIRSRPPRLPRPRPRPWPEPRP | 0.519 |
| RRIRHRPPRLPRPRPRPPIYPRP | -0.204 |
| RRIRNRPPRLPRPRPRPYPKPRP | 0.0245 |

| Sequence | shrunken log2 fold change |
| --- | --- |
| RRIRCRPPRLPRPRPRPSPMPRP | 0.0865 |
| RRIRYRPPRLPRPRPRPMYGPRP | -0.00999 |
| RRIRYRPPRLPRPRPRPHAKPRP | -0.0339 |
| RRIRNRPPRLPRPRPRPNINPRP | -0.638 |
| RRIRWRPPRLPRPRPRPKQHPRP | 0.299 |
| RRIRGRPPRLPRPRPRPLYFPRP | -0.131 |
| RRIRPRPPRLPRPRPRPSESPRP | 0.000106 |
| RRIRDRPPRLPRPRPRPSHNPRP | -0.314 |
| RRIRVRPPRLPRPRPRPTFRPRP | 0.218 |
| RRIRIRPPRLPRPRPRPQGYPRP | -0.0157 |
| RRIRLRPPRLPRPRPRPALKPRP | 0.489 |
| RRIRHRPPRLPRPRPRPRYHPRP | -0.315 |
| RRIRERPPRLPRPRPRPSQYPRP | -0.113 |
| RRIRMRPPRLPRPRPRPDADPRP | 3.36 |
| RRIRWRPPRLPRPRPRPVQQPRP | -0.0911 |
| RRIRARPPRLPRPRPRPFKDPRP | -0.0208 |
| RRIRHRPPRLPRPRPRPIGFPRP | -0.0167 |
| RRIRCRPPRLPRPRPRPHYNPRP | -1.32 |
| RRIRHRPPRLPRPRPRPWTAPRP | -0.0875 |
| RRIRMRPPRLPRPRPRPGKKPRP | 0.532 |
| RRIRVRPPRLPRPRPRPKQVPRP | -0.0801 |
| RRIRHRPPRLPRPRPRPCIFPRP | -0.597 |
| RRIRVRPPRLPRPRPRPIHKPRP | -0.203 |
| RRIRTRPPRLPRPRPRPKAHPRP | 0.182 |
| RRIRQRPPRLPRPRPRPHCGPRP | 0.0588 |

| Sequence | shrunken log2 fold change |
| --- | --- |
| RRIRPRPPRLPRPRPRPVVHPRP | -0.205 |
| RRIRKRPPRLPRPRPRPNDYPRP | -0.115 |
| RRIRLRPPRLPRPRPRPGAAPRP | 0.543 |
| RRIRLRPPRLPRPRPRPFQNPRP | -0.0252 |
| RRIRGRPPRLPRPRPRPAQFPRP | 0.199 |
| RRIRNRPPRLPRPRPRPDFIPRP | -0.111 |
| RRIRDRPPRLPRPRPRPERHPRP | 1.06 |
| RRIRCRPPRLPRPRPRPGHEPRP | 0.00505 |
| RRIRNRPPRLPRPRPRPFGQPRP | -0.282 |
| RRIRTRPPRLPRPRPRPKERPRP | -0.0679 |
| RRIRTRPPRLPRPRPRPWFNPRP | -0.471 |
| RRIRLRPPRLPRPRPRPNCIPRP | -0.603 |
| RRIRCRPPRLPRPRPRPDDIPRP | 0.0301 |
| RRIRYRPPRLPRPRPRPPIGPRP | -0.0423 |
| RRIRGRPPRLPRPRPRPHLRPRP | -0.148 |
| RRIRFRPPRLPRPRPRPYYYPRP | -0.392 |
| RRIRGRPPRLPRPRPRPSLAPRP | 1.09 |
| RRIRSRPPRLPRPRPRPGVRPRP | -0.0323 |
| RRIRPRPPRLPRPRPRPVFAPRP | 0.155 |
| RRIRGRPPRLPRPRPRPMLDPRP | 0.485 |
| RRIRSRPPRLPRPRPRPGCSPRP | -0.115 |
| RRIRWRPPRLPRPRPRPSLYPRP | -0.402 |
| RRIRHRPPRLPRPRPRPFEMPRP | -0.505 |
| RRIRVRPPRLPRPRPRPNAWPRP | 0.0914 |
| RRIRERPPRLPRPRPRPTFGPRP | 0.0107 |

| Sequence | shrunken log2 fold change |
| --- | --- |
| RRIRDRPPRLPRPRPRPKYYPRP | -0.193 |
| RRIRIRPPRLPRPRPRPMAEPRP | -0.0152 |
| RRIRPRPPRLPRPRPRPYHNPRP | -0.785 |
| RRIRFRPPRLPRPRPRPPPDPRP | 1.3 |
| RRIRMRPPRLPRPRPRPGNQPRP | -0.0232 |
| RRIRARPPRLPRPRPRPKTFPRP | -0.0543 |
| RRIRARPPRLPRPRPRPRETPRP | 0.52 |
| RRIRSRPPRLPRPRPRPVDVPRP | 0.126 |
| RRIRPRPPRLPRPRPRPMCIPRP | -0.0687 |
| RRIRPRPPRLPRPRPRPDWKPRP | 0.286 |
| RRIRCRPPRLPRPRPRPGSNPRP | -0.915 |
| RRIRYRPPRLPRPRPRPRCRPRP | -0.26 |
| RRIRGRPPRLPRPRPRPIHRPRP | 0.0525 |
| RRIRHRPPRLPRPRPRPFKMPRP | -0.274 |
| RRIRCRPPRLPRPRPRPHSDPRP | -0.412 |
| RRIRYRPPRLPRPRPRPQSCPRP | 0.0148 |
| RRIRTRPPRLPRPRPRPFANPRP | -0.116 |
| RRIRFRPPRLPRPRPRPIKDPRP | -0.234 |
| RRIRLRPPRLPRPRPRPLHWPRP | 1.5 |
| RRIRNRPPRLPRPRPRPFVVPRP | -0.676 |
| RRIRCRPPRLPRPRPRPWFPPRP | -0.699 |
| RRIRARPPRLPRPRPRPQHAPRP | 0.269 |
| RRIRMRPPRLPRPRPRPQTSPRP | 0.339 |
| RRIRWRPPRLPRPRPRPEMKPRP | 0.271 |
| RRIRYRPPRLPRPRPRPLPIPRP | -0.722 |

| Sequence | shrunken log2 fold change |
| --- | --- |
| RRIRQRPPRLPRPRPRPHWSPRP | -0.161 |
| RRIRKRPPRLPRPRPRPFIGPRP | -0.0147 |
| RRIRQRPPRLPRPRPRPDWRPRP | 0.0703 |
| RRIRHRPPRLPRPRPRPNEIPRP | -0.21 |
| RRIRKRPPRLPRPRPRPWFRPRP | 0.00108 |
| RRIRSRPPRLPRPRPRPPPMPRP | 0.817 |
| RRIRLRPPRLPRPRPRPDECPRP | 0.0277 |
| RRIRDRPPRLPRPRPRPDFHPRP | -0.139 |
| RRIRFRPPRLPRPRPRPISGPRP | 0.00212 |
| RRIRHRPPRLPRPRPRPDIVPRP | -0.38 |
| RRIRPRPPRLPRPRPRPDHDPRP | -0.306 |
| RRIRFRPPRLPRPRPRPILGPRP | 0.0151 |
| RRIRERPPRLPRPRPRPDEMPRP | -0.0223 |
| RRIRLRPPRLPRPRPRPSYFPRP | -0.452 |
| RRIRQRPPRLPRPRPRPGHKPRP | -0.00306 |
| RRIRLRPPRLPRPRPRPNSRPRP | -0.0164 |
| RRIRRRPPRLPRPRPRPCVKPRP | 0.252 |
| RRIRGRPPRLPRPRPRPGIYPRP | 0.641 |
| RRIRSRPPRLPRPRPRPDMIPRP | -0.00286 |
| RRIRTRPPRLPRPRPRPSACPRP | -0.277 |
| RRIRSRPPRLPRPRPRPDQPPRP | 0.0272 |
| RRIRSRPPRLPRPRPRPVVEPRP | 0.13 |
| RRIRQRPPRLPRPRPRPNGEPRP | 0.0404 |
| RRIRERPPRLPRPRPRPHKLPRP | -0.635 |
| RRIRARPPRLPRPRPRPKDLPRP | -0.0598 |
